According to the Human Domainome abundance scans (Beltran et al. 2025):

B1: POU domain, class 2, transcription factor 3, residues 186 to 260; numbered along this chain, Q9UKI9 (parent)
chain: SDLEELEKFAKTFKQRRIKLGFTQGDVGLAMGKLYGNDFSQTTISRFEALNLSFKNMCKLKPLLEKWLNDAESSP
B2: Transitional endoplasmic reticulum ATPase, residues 26 to 106; numbered along this chain, P55072 (parent)
chain: LIVDEAINEDNSVVSLSQPKMDELQLFRGDTVLLKGKKRREAVCIVLSDDTCSDEKIRMNRVVRNNLRVRLGDVISIQPCP

Variants of: B1
Test: abundance fitness (aPCA) (normalised: wild type 0, dead -1); higher = more abundant; growth selection in yeast, the domain comes from the species named
Details: Homo sapiens

Abundance fitness, by site and new letter:
L20: K -0.591
D26: G -0.125; R -0.344; V -0.227
L3: F -0.055
G36: S 0.1; C -0.18
N37: H 0.04; C -0.027; W -0.07; A 0.02; R 0.027; D 0.023; V -0.027; G 0.024; I -0.039; E 0.003; F -0.139; M -0.025; T -0.013; Y -0.157
S53: G 0.015; P -0.032; F -0.66; V -0.598; L -0.768; K -0.091; H -0.205; N 0.03; D -0.04; R -0.093; W -0.958; T 0.002; E -0.061; Q -0.077; M -0.608; I -0.556
A49: M -0.201; K -0.315; H 0.014; S 0.089; R -0.036; F -0.274; Q 0.133; P -0.384; V 0.011; L -0.197; T -0.253
E48: L -0.836; V -1.04; W -1.17; I -1.02; N -0.871; D -1.11; P -0.994; T -1.25; G -1.04; M -0.798; S -0.912; C -0.871; K -0.705; H -1.19; F -0.708; Q -1.16
T42: I 0.135
F54: D -0.063; E 0.018; G -0.05; A 0.013; H 0.033; C -0.068
G32: R 0.29
K14: A -0.309
L50: R 0.009; T -0.003; Y -0.077; K -0.051; S 0.031; M -0.02; A 0.017; N 0.087; G 0.031; Q -0.055; E -0.165; H 0.142; D -0.204; C -0.078; W -0.105
G25: C 0.105; D -0.436; V -0.161
N51: P -0.844; C -0.076; K 0.069; Y -0.188; T 0.007; L -0.035; H 0.107; M -0.022; V -0.1; E -0.078; I -0.151; S 0.043; G -0.01; Q -0.011; D -0.008; W -0.282
I44: R -0.86; P -0.919; Q -0.985; D -1.03; E -0.794; A -0.784; C -0.538; H -1.02; L -0.149; Y -0.569; G -1; M -0.377; V -0.045; N -1.1
Q15: A 0.474
S45: N 0.004; H -0.097; C 0.022; F -0.253; R -0.024; V -0.077; K 0.021; M -0.037; D -0.048; W -0.138; T -0.036; L -0.125; G -0.036; Y -0.099; A 0.013; P -0.04; I -0.125
G28: T 0.087; R -0.191; C -0.367; A -0.055; Q -0.59
D2: E 0.015; N -0.107; G -0.01
Y35: F -0.182; D -0.016; S 0.01
F22: L 0.065; A 0.146; S -0.282; R -0.274; E -0.412
E5: G -0.045; F -0.102; A 0.042; C -0.005; M 0.016; Q 0.003; R -0.003; Y -0.269; S 0.031; N -0.031; D 0.036; I -0.022; T 0.013; H 0.029; W -0.137
G21: V -0.683; D -0.373; Q -0.493; S -0.504
Q24: S -0.071; C -0.155; A -0.451; W -0.591
D38: N 0.037
L52: E -0.131; P -0.972; M -0.004; F -0.231; I -0.183; W -0.201; S -0.25; G -0.149; R -0.717; K -0.618; N -0.444; C -0.107; D -0.021; A -0.148
L29: S -0.003; T -0.083; C 0.026; D -0.045; R 0.019; G -0.042; W -0.121; Y -0.06; K 0.042; M 0.05; E 0.02; F -0.099; P -0.47; V -0.007; A 0.024; I 0.022; H -0.062; Q 0.007
T12: R -0.018; Q 0.01; N 0.063
V27: D -0.727
F47: K -1.15; M -0.279; Q -1.22; C -0.845; L -0.098; E -0.942; W -0.27; R -1.08; Y -0.222; N -0.932; D -0.985; T -0.812; P -1.09; V -0.346; S -0.915; I -0.433; A -0.712; G -0.925
K19: A -0.321; S 0.11; D 0.131; L 0.228
A30: G -0.288
K33: W -0.372; G 0.141; R 0.129
F9: G -0.387; V -0.441; S -0.153; L -0.514
K8: G -0.115
R46: L -0.05; P -0.986; V -0.542; I -0.745; T -0.181; A 0.015; Q 0.014; Y -0.097; S -0.008; K 0.052; E 0.035; D 0.009; W -0.428; N 0.011; M -0.001; G -0.009; H -0.038
M31: R -0.746; C -0.583
S1: F -0.062
A10: G -0.064
Q41: R -0.001; I -0.072; H -0.001; S -0.002; K 0.051; G 0.009; M -0.055; V -0.081; L -0.117; T -0.04; E 0.026; Y -0.07; W -0.095; F -0.037; C -0.062; A 0.025; D -0.066; P -0.03
I18: Y -0.166; H -0.133; C -0.143; D -0.063; N -0.146; Q 0.086; P -0.964; S -0.072; A -0.056; T -0.041; K -0.028; W -0.31; E 0.064; V -0.023; F -0.266; R -0.057; M 0.004; L -0.025
T23: S 0.026; A -0.157
R16: G -0.147
L6: S -0.16; F -0.229

Variants of: B2
Test: as above
Details: Homo sapiens

Abundance fitness of substitutions, site by site:
P81: T -0.013; R -0.221; V -0.153; A -0.042; H -0.261; I -0.174; F -0.195; Y -0.224; S -0.106; C -0.262; D 0.058; N 0.073; L -0.405; G -0.451
C80: R -0.066; T -0.038; W -0.29; V -0.06; P -0.048; I 0.047; L 0.022; Y -0.109; M 0.055; K -0.505; N 0.141; Q 0.104
